Measurements from US20070042946A1 (NATIONAL RESEARCH COUNCIL OF CANADA, published 2007).

B1: FN22 (peptide)
peptide: FNPRPQSHNDGDFEEIPEEYLQ
notes: Tested as recombinant peptide (FN22^(a), released by CNBr from the MFH fusion) and as synthetic peptide; also called FN22^(a) (recombinant preparation)
B2: FD22 (peptide)
peptide: FDPRPQSHNDGDFEEIPEEYLQ
notes: Tested as recombinant peptide (FD22^(a), released by CNBr from the MFH fusion) and as synthetic peptide; also called FD22^(a) (recombinant preparation)

The binders below were run against bovine α-thrombin (bovine, UniProt P00735 318-625) (assay: cell-based or functional assay).
In the case of B1, the “IC50, clotting assay; recombinant peptide” value is reported as 289 nM.

The binders below were run against T1, human α-thrombin (human, UniProt P00734 328-622) (assay: amidolytic assay, Tos-Gly-Pro-Arg-pNA hydrolysis by human α-thrombin, 25° C.).
Description: Kinetics of thrombin-catalyzed hydrolysis of the chromogenic substrate Tos-Gly-Pro-Arg-p-nitroanilide were followed by absorbance at 405 nm on a Spectramax plate reader thermostated at either 25° C. or 37° C. according to the method of Maragnore et al (supra). The concentrations of Tos-Gly-Pro-Arg-p-nitroanilide ranged from 2 to 400 μM. […] The KM and Vₘₐₓ values were calculated accordingly and kcat values were determined by dividing Vₘₐₓ by the enzyme (thrombin) concentration. The inhibition assays were performed in the clotting buffer with a certain fixed concentration of α-thrombin (˜0.3 nM) such that linear progress curves were achieved within at least 15 min in the absence of the inhibition. The total volume of the solution was fixed at 200 μl. Reactions were initiated by addition of the chromogenic substrate to the wells containing thrombin and a certain concentration of the peptide inhibitors premixed for less than 2 min. Alternatively, the substrate was first mixed with the peptide inhibitor and the total volume was adjusted to 120 μL using the clotting buffer. Eighty microliters of human α-thrombin in the clotting buffer (˜0.3 nM final concentration) was added to initiate the reaction. The concentration of the peptides ranged from 0.5 nM to 10 μM. Kinetics data from initial rate experiments were used to construct Lineweaver-Burke plot; i.e. the relationship of (substrate concentration)⁻¹ versus (initial velocity)⁻¹ which. were analysed by linear regression with MicroCal Origin 4.1 program (MicroCal, MD) or using the GraphPad Prism software. The Kᵢ values of the inhibitors were determined using the equation: Kᵢ=[I]/{(SL₀/SL₁)−1}, where [0098] [I] is the inhibitor concentration, [0099] SL₀ is the slope of the reaction in the absence of inhibitors, and [0100] SL₁ is the slope of the reaction in the presence of the inhibitor. Alternatively, Dixon plots of inverse velocity versus the inhibitor concentrations were generated with the Sigmaplot™ software. Every Dixon plot contained an array of data corresponding to different substrate concentrations and the Kᵢ values were determined from the intersections. Following Peptide Cleavage by HPLC
In the case of GSAVPRPQIHNDGDFEEIPEEYLQ [GS-AV22-I], the Ki is reported as 41 nM. In the case of GSIQPRPQIHNDGDFEEIPEEYLQ [GS-IQ22-I], the Ki is reported as > 400 nM. Binder FQPRPQMHNDGDFEEIPEEYLQ [FQ22-M] has a Ki of 64 nM. With LDPRPQSHNDGDFEEIPEEYLQ (Synthetic) [LD22] the Ki was 260 nM. FNPRPQIHNDGDFEEIPEEYLQ [FN22-I] gave a Ki of 360 nM. WDPRPQRHNDGDFEEIPEEYLQ (Synthetic) [WD22-R] showed a Ki of 17 nM. In the case of FDPRPQDHNDGDFEEIPEEYLQ (Synthetic) [FD22-D], the Ki is reported as 58 nM. In the case of IQPRPQIHNDGDFEEIPEEYLQ [IQ22-I], the Ki is reported as 49 nM. FDPRPQRHNDGDFEEIPEEYLQ (Synthetic) [FD22-R] gave a Ki of 45 nM.

What follows are binders tested against T1, human α-thrombin (assay: cell-based or functional assay).
With FEPRPQDHNDGDFEEIPEEYLQ [FE22-D] the “IC50 (DCT), clotting assay, 37° C.” value was > 125 nM. For FDPRPQKHNDGDFEEIPEEYLQ [FD22-K], the “IC50 (DCT), clotting assay, 37° C.” value was 60 nM. In the case of GSAVPRPQIHNDGDFEEIPEEYLQ [GS-AV22-I], the “IC50 (DCT), clotting assay, 37° C.” value is reported as 33 nM. In the case of GSIQPRPQIHNDGDFEEIPEEYLQ [GS-IQ22-I], the “IC50 (DCT), clotting assay, 37° C.” value is reported as 10 nM. In the case of FHPRPQSHNDGDFEEIPEEYLQ [FH22], the “IC50 (DCT), clotting assay, 37° C.” value is reported as > 150 nM. In the case of WDPRPQSRNDGDFEPIPEEYLQ [WD22-SR-P], the “IC50 (DCT), clotting assay, 37° C.” value is reported as 53 nM. For WDPRPQSRNDGDYEPIPEEYLQ [WD22-SR-YP], the “IC50 (DCT), clotting assay, 37° C.” value was 32 nM. With FEPRPQSHNDGDFEEIPEEYLQ [FE22] the “IC50 (DCT), clotting assay, 37° C.” value was 80 nM. In the case of B1, the “IC50 (DCT), clotting assay, 37° C.; recombinant peptide FN22^(a)” value is reported as 150 nM and the “IC50 (DCT), clotting assay, 37° C.; synthetic peptide” value is reported as 67 nM. FQPRPQMHNDGDFEEIPEEYLQ [FQ22-M] was tested, and the “IC50 (DCT), clotting assay, 37° C.” value was 11 nM. In the case of LDPRPQSHNDGDFEEIPEEYLQ (Synthetic) [LD22], the “IC50 (DCT), clotting assay, 37° C.” value is reported as 228 nM. For FNPRPQIHNDGDFEEIPEEYLQ [FN22-I], the “IC50 (DCT), clotting assay, 37° C.” value was 45 nM. In the case of WDPRPQRHNDGDFEEIPEEYLQ (Synthetic) [WD22-R], the “IC50 (DCT), clotting assay, 37° C.” value is reported as 22 nM. With B2 the “IC50 (DCT), clotting assay, 37° C.; recombinant peptide FD22^(a)” value was 50 nM and the “IC50 (DCT), clotting assay, 37° C.; synthetic peptide” value was 45 nM. In the case of FDPRPQDHNDGDFEEIPEEYLQ (Synthetic) [FD22-D], the “IC50 (DCT), clotting assay, 37° C.” value is reported as 53 nM. IQPRPQIHNDGDFEEIPEEYLQ [IQ22-I] was tested, and the “IC50 (DCT), clotting assay, 37° C.” value was 39 nM. With FDPRPQRHNDGDFEEIPEEYLQ (Synthetic) [FD22-R] the “IC50 (DCT), clotting assay, 37° C.” value was 32 nM. With FDPRPQHHNDGDFEEIPEEYLQ [FD22-H] the “IC50 (DCT), clotting assay, 37° C.” value was 70 nM.

What follows are binders tested against T1, human α-thrombin (assay: amidolytic assay, Tos-Gly-Pro-Arg-pNA hydrolysis by human α-thrombin, 25° C.; synthetic peptide).
Description: (§1) Kinetics of thrombin-catalyzed hydrolysis of the chromogenic substrate Tos-Gly-Pro-Arg-p-nitroanilide were followed by absorbance at 405 nm on a Spectramax plate reader thermostated at either 25° C. or 37° C. according to the method of Maragnore et al (supra). The concentrations of Tos-Gly-Pro-Arg-p-nitroanilide ranged from 2 to 400 μM. […] The KM and Vₘₐₓ values were calculated accordingly and kcat values were determined by dividing Vₘₐₓ by the enzyme (thrombin) concentration. The inhibition assays were performed in the clotting buffer with a certain fixed concentration of α-thrombin (˜0.3 nM) such that linear progress curves were achieved within at least 15 min in the absence of the inhibition. The total volume of the solution was fixed at 200 μl. […] Kinetics data from initial rate experiments were used to construct Lineweaver-Burke plot; i.e. the relationship of (substrate concentration)⁻¹ versus (initial velocity)⁻¹ which. were analysed by linear regression with MicroCal Origin 4.1 program (MicroCal, MD) or using the GraphPad Prism software. The Kᵢ values of the inhibitors were determined using the equation: Kᵢ=[I]/{(SL₀/SL₁)−1}, where [0098] […] Every Dixon plot contained an array of data corresponding to different substrate concentrations and the Kᵢ values were determined from the intersections. […]
Binder B1 has a Ki of 80 nM. With B2 the Ki was 48 nM.

Each binder was assayed against T1, human α-thrombin (assay: amidolytic assay, Tos-Gly-Pro-Arg-pNA hydrolysis by human α-thrombin, 25° C.; recombinant peptide).
Description: as §1
With B1 the Ki was 100 nM. B2 gave a Ki of 55 nM.
